Patent US20250155441A1 (ROCHE DIAGNOSTICS OPERATIONS, published 2025)
Substitutions are numbered along the chain they refer to. Numbers in names are those of the source. The star is where a group is joined. G0F = fucosylated biantennary N-glycan, CC(=O)N[C@@H]1[C@@H](O)[C@H](O[C@@H]2O[C@H](CO)[C@@H](O[C@@H]3O[C@H](CO[C@H]4O[C@H](CO)[C@@H](O)[C@H](O)[C@@H]4O[C@@H]4O[C@H](CO)[C@@H](O)[C@H](O)[C@H]4NC(C)=O)[C@@H](O)[C@H](O[C@H]4O[C@H](CO)[C@@H](O)[C@H](O)[C@@H]4O[C@@H]4O[C@H](CO)[C@@H](O)[C@H](O)[C@H]4NC(C)=O)[C@@H]3O)[C@H](O)[C@H]2NC(C)=O)[C@@H](CO[C@@H]2O[C@@H](C)[C@@H](O)[C@@H](O)[C@@H]2O)O[C@H]1*

B1: AFP(243-261)[Ac-243; Asn(G0F)251]amid (peptide)
peptide: Ac-LSQKFTKVN(G0F)FTEIQKLVLD-NH2
notes: also called BMO 35.000315
B2: AFP(248-256)Ac-248]amid (peptide)
peptide: Ac-TKVNFTEIQ-NH2
notes: also called BMO 35.000373
B3: mAb<AFP-L3>rRb-19B12-IgG (antibody, V domains shown)
VH: QSVEESGGRLVAPGTPLTLTCTVSGIDLSTYGMGWVRQAPGKGLEWIGIIGDNGSTYYANWAKGRFTISKTSTTVDLKMTSLTTEDTATYFCARDRDPSSSGYYFKMWGPGTLVTVSL
VL: ALVMTQTPSSVSAAVGGTVTINCQASQSISSYLAWYQQKPGQPPKLLIFGASNLESGVPSRFKGSGSGTEFTLTISDLECDDAATYYCQTAFYIFSSDNAFGGGTEVVVK
notes: Recombinant rabbit IgG (B-cell supernatant in the Hit-ELISA, expressed in HEK293 afterwards); also called antibody 19B12; clone 19B12
B4: mAb<AFP-L3>rRb-3C5-IgG (antibody, V domains shown)
VH: QSVEESGGRLVAPGTPLTLTCTVSGIDLSTYGMGWVRQAPGKGLEYIGIIDSGSTYYANWAKGRFTISKTSTTVDLKMTSLTTEDTATYFCARDRDPSSSGYYFKMWGPGTLVTVSL
VL: B3 VL with S30G, K45R, F49Y
notes: Recombinant rabbit IgG; also called antibody 3C5; clone 3C5

Legend:
[1] = target: B3; test: SPR affinity in solution (Biacore, CAP chip): 10 nM antibody equilibrated with the non-biotinylated peptide at varied concentration; free antibody measured by its binding to captured AFP(243-261)-G0F-Bi; n=2
Protocol: (§1) The dissociation equilibrium constant K) was determined via the Affinity in Solution method (AiS).
(§2) With increasing peptide concentration as a competitor, the ‘free’ antibody in solution decreases. The determined free antibody concentrations for the competition experiment were plotted versus the peptide competitor concentration. The regeneration was performed using a Guanidinium/NaOH solution, as supplied by Cytiva. Two independent series were analyzed for each interaction. The Affinity in Solution model from Biacore Evaluation software was used to evaluate the data.

[2] = target: B4; test: SPR affinity in solution (Biacore, CAP chip): 10 nM antibody equilibrated with the non-biotinylated peptide at varied concentration; free antibody measured by its binding to captured AFP(243-261)-G0F-Bi; n=2 [continued), upper plot]
Protocol: as §1, §2

[3] = target: B4; test: SPR affinity in solution (Biacore, CAP chip): 10 nM antibody equilibrated with the non-biotinylated, non-glycosylated peptide at varied concentration; free antibody measured by its binding to captured AFP(243-261)-G0F-Bi; n=2 [continued]
Protocol: as §1, §2

[4] = target: B3; test: SPR affinity in solution (Biacore, CAP chip): 10 nM antibody equilibrated with the non-biotinylated, non-glycosylated peptide at varied concentration; free antibody measured by its binding to captured AFP(243-261)-G0F-Bi; n=2 [continued), lower plot]
Protocol: as §1, §2

[5] = target: T1, AFP(243-261)[Asn(Fuc-GlcNAc)Bi-PEG] (human, not fully specified; Fuc-GlcNAc disaccharide on Asn corresponding to Asn-251; C-terminal E(biotinyl-PEG)-NH2); test: SPR; ratio of KD against the KD for AFP(243-261)-G0F-Bi
T1 peptide: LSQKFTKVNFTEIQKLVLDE

[6] = target: T1, AFP(243-261)[Asn(Fuc-GlcNAc)Bi-PEG]; test: SPR Biacore T200, 37 C; molar ratio (binding stoichiometry)
Protocol: (§3) Detailed kinetic investigations were performed using a BIAcore™ T200 instrument from GE Healthcare at 37° C. The 5 rabbit mAb<AFP-L3>L9B12, 3C5, 3D2, 3A3 and 6B6, identified via the kinetic screening, were kinetically characterized for binding AFP-L3 peptides [0656] […] Asn(G0F)-Bi [0658]
(§4) The rabbit antibody capture system was immobilized on flow cells 1-4 as described with 700 to 800 RU. Flow cell 1 served as reference, flow cells 2, 3 and 4 were used for interaction measurements. 150 nM antibodies 1-5 were injected at 10 μL/min for 30 seconds. The Capture Levels (CL) in resonance units RU were monitored. Peptide analyte concentration series from 3.3-270 nM were injected at 60 μl/min. The association phase was monitored for 3 minutes, the dissociation phase was monitored for 10 minutes. The regeneration was performed by an injection of 10 mM Glycine pH 2.0 at 20 μL/min for 30 seconds, followed by 2 injections of 10 mM Glycine pH 2.25 for 60 seconds. The kinetic rate constants and the dissociation equilibrium constants KD were determined using a Langmuir 1:1 fitting model according to the BIAcore™ T200 Evaluation SW 3.2. Secondly, the Langmuir 1:1 fitting Scrubber-SW V2.0c was applied.

[7] = target: T2, AFP(243-261)[Acetyl-243; Asn(G0F)251; Bi-PEG] (human, N-terminal acetylation; G0F (fucosylated biantennary N-glycan) on Asn corresponding to Asn-251; C-terminal E(biotinyl-PEG)-NH2); test: as above
T2 construct: Synthetic glycopeptide
T2 peptide: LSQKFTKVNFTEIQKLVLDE
Protocol: as §3, §4

[8] = target: B2; test: affinity in solution; ratio of KD against the KD for AFP(243-261)-G0F
Protocol: as §1, §2

[9] = target: T2, AFP(243-261)[Acetyl-243; Asn(G0F)251; …; test: SPR; ratio of KD against the KD for AFP(243-261)-G0F-Bi (reference itself)
Protocol: as §1, §2

[10] = target: T1, AFP(243-261)[Asn(Fuc-GlcNAc)Bi-PEG]; test: SPR Biacore T200, 37 C, antibody captured on C1 chip, peptide as analyte, Langmuir 1:1
Protocol: as §3, §4

[11] = target: T2, AFP(243-261)[Acetyl-243; Asn(G0F)251; …; test: as above
Protocol: as §3, §4

[12] = target: T3, AFP(243-261)[Ac-243; Asn(G2)251; Bi-PEG] (human, N-terminal acetylation; G2 (non-fucosylated biantennary N-glycan) on Asn corresponding to Asn-251; C-terminal E(biotinyl-PEG)-NH2); test: SPR; ratio of KD against the KD for AFP(243-261)-G0F-Bi; SPR; ratio of KD to the KD for G0F
T3 peptide: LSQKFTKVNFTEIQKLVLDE
Protocol: as §3, §4

[13] = target: B2; test: SPR affinity in solution: 10 nM antibody with 200 µM-0.1 nM free peptide, free antibody read on AFP(243-261)-G0F-Bi CAP chip, n=2
Protocol: as §1, §2

[14] = target: B1; test: SPR affinity in solution: 10 nM antibody with 120 nM-0.01 nM free peptide, free antibody read on AFP(243-261)-G0F-Bi CAP chip, n=2
Protocol: as §1, §2

[15] = target: T3, AFP(243-261)[Ac-243; Asn(G2)251; Bi-PEG]; test: SPR Biacore T200, 37 C; simulation for 7.3 µM-10 nM extrapolated from measured data; SPR simulation for 7.3 µM-10 nM, extrapolated lower bound
[16] = target: T3, AFP(243-261)[Ac-243; Asn(G2)251; Bi-PEG]; test: SPR Biacore T200, 37 C, weak binding (cell shifted to the kd column); SPR, weak binding; KD only, no rate constants
[17] = target: T2, AFP(243-261)[Acetyl-243; Asn(G0F)251; …; test: SPR Biacore T200, 37 C, antibody captured on C1 chip, peptide as analyte, Langmuir 1:1; apparent value (complex binding behavior)
Protocol: as §3, §4
By visual inspection, the kinetic signature for antibody 3C5 is close to the antibody saturation for the highest shown concentration 90 nM.

For B1, the “IC50 (read off the curve)” value [1] was ~6 nM and the “IC50 (read off the curve)” value [2] was ~5 nM.

B2: binds [3]; binds [4].

With B3 the “Delta KD” value [5] was > 7 fold, the MR [6] was 1.3 and the MR [7] was 1.4. For the same binder, the “Delta KD” value [8] was > 5000 fold, the “Delta KD” value [9] was 1 fold and the Kd [10] was 18 nM. It also gave a koff [10] of 0.0047 s⁻¹, a kon [10] of 270000 M⁻¹ s⁻¹ and a t/2 diss [10] of 2.5 min. For the same binder, the Kd [11] was 2.5 nM, the koff [11] was 0.0015 s⁻¹ and the kon [11] was 600000 M⁻¹ s⁻¹. The t/2 diss [11] was 8 min, the “Delta KD” value [12] was > 245 fold and the Kd [13] was 5700 nM. The Kd [14] was 0.9 nM and the Kd [15] was > 620 nM.

For B4, the “Delta KD” value [5] was > 11 fold, the MR [6] was 1.5 and the MR [7] was 1.6. The “Delta KD” value [8] was > 5000 fold, the “Delta KD” value [9] was 1 fold and the Kd [10] was 35 nM. It also gave a koff [10] of 0.016 s⁻¹, a kon [10] of 450000 M⁻¹ s⁻¹ and a t/2 diss [10] of 0.7 min. The “Delta KD” value [12] was > 180 fold, the Kd [16] was 560 nM and the Kd [17] was 3.1 nM. It also gave a koff [17] of 0.0032 s⁻¹, a kon [17] of 1e+06 M⁻¹ s⁻¹ and a Kd [13] of 12600 nM. It also gave a Kd [14] of 0.4 nM.
